US20190263932A1 (Eli Lilly, published 2019)

T1: Rabbit TrkA Extracellular Domain (33-414) (rabbit)
T1 construct: SPR analyte; not shown: C-terminal polyhistidine tag (unknown length)
T1 chain: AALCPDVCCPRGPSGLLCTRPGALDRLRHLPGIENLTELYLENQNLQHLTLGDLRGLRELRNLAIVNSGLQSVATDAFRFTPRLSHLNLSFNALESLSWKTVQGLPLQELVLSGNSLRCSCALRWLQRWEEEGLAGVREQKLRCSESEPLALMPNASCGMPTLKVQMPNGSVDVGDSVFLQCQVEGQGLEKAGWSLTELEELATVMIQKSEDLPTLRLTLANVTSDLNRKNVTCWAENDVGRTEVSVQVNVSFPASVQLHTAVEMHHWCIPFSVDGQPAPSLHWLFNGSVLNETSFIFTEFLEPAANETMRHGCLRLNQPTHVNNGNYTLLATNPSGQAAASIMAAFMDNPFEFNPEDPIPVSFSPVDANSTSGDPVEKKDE


Experiments:
[1] = target: T2, rat TrkA receptor expressed in transfected HEK293 cells (rat, UniProt P35739 33-799); assay: cell-based or functional assay
T2 sequence (P35739 33-799): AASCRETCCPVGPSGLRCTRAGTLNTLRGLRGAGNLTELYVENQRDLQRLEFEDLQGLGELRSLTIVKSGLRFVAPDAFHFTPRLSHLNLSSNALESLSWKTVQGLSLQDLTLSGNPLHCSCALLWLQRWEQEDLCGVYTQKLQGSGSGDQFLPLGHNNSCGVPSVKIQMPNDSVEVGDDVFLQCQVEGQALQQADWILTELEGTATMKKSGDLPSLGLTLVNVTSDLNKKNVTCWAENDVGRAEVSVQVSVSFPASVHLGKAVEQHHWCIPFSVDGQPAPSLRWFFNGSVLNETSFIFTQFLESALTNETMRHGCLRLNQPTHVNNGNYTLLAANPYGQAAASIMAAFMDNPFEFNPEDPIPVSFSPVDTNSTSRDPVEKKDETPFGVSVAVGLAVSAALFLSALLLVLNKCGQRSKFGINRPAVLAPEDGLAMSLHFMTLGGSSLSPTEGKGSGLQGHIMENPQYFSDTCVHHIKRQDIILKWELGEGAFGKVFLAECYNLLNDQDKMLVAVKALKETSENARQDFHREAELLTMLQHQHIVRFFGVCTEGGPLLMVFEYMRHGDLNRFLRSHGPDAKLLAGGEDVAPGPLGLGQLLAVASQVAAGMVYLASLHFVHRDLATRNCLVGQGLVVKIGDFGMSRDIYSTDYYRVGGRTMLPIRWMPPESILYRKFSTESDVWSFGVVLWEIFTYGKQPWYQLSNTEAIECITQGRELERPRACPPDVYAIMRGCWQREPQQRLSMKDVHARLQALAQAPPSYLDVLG

[2] = target: T2, rat TrkA receptor expressed in …; assay: cell-based or functional assay; remark: listed apart in the source
[3] = target: T1, Rabbit TrkA Extracellular Domain …; assay: SPR, mAb captured on Protein A chip, 37 C
Experimental: (§1) The binding kinetics and affinity of exemplified antibodies to human, cynomolgus monkey, rat, mouse, and rabbit TrkA are determined as described below using a surface plasmon resonance assay on a BIACORE™ 8K instrument (GE Healthcare). Two different isoforms of human TrkA (isoform 1 and isoform 2) are evaluated along with human TrkB and human TrkC. […] All FC2 on all eight channels are set to capture approximately 89 response units (RU) of antibody at a flow rate of 10 μL/min. The antibody sample is prepared at 1 μg/mL by dilution into the running buffer. […] Before the analysis cycle, the chip is regenerated with 3 injections of glycine (pH ˜1.5) at 100 μL/min for a contact time of 15 seconds on FC1 and FC2 in order to clean the surface of the chip.

[4] = target: T3, Human TrkA Extracellular Domain Isoform 2 (33-408) (human, UniProt P04629 33-414); assay: SPR, mAb captured on Protein A chip, 37 C
T3 construct: SPR analyte; also called Human TrkA Isoform 2
T3 sequence (P04629 other isoform, or with tags, fused parts or gaps): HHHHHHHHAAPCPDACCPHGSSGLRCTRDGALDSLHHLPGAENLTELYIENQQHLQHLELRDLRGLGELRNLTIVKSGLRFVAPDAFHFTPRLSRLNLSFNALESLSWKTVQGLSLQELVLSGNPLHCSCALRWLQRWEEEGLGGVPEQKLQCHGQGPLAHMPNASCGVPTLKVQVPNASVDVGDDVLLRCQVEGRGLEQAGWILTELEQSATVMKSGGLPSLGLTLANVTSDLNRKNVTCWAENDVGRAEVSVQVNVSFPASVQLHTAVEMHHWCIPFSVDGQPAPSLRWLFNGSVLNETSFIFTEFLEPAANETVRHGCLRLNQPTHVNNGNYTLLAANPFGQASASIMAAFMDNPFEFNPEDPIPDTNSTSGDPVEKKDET
Experimental: as §1

[5] = target: T4, recombinant human TrkA protein (human, UniProt P04629-2 34-407, limits assumed); assay: NGF-blocking ELISA on coated human TrkA, 100 nM btNGF; mAb 5 nM
T4 sequence (P04629 other isoform, or with tags, fused parts or gaps limits assumed): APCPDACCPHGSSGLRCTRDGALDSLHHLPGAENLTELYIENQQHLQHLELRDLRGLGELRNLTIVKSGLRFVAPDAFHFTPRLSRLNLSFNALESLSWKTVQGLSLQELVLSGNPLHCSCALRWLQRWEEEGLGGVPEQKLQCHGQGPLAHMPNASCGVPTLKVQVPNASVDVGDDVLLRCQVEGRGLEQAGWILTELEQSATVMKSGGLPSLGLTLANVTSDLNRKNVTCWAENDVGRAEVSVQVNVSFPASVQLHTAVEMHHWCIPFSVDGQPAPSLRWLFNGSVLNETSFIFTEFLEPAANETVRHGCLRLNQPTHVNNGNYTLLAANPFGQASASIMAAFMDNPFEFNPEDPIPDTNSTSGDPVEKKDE
Experimental: (§2) Each row of a 96-well high-binding clear-bottom microtiter plate (Microlon, #655061) was coated overnight at 4° C. with 100 μL/well of recombinant human TrkA protein, diluted to 2 μg/mL in phosphate buffered saline, pH 7.2 (PBS). The next day, the coating solution was removed, and the plate was blocked with 150 μL of Casein-PBS (Thermo Scientific, #37528) for 1 hour at 25° C. with gentle shaking. The plate was then washed three times with PBS supplemented with 0.05% Tween20 (PBST). A two-fold dilution series of exemplified antibodies, along with IgG4 and IgG1 isotype control antibodies, was generated starting at 20 nM in Casein-PBS. 100 μL of the each dilution series sample was added to a well for 30 min at 37° C. with gentle shaking. The plate was then washed three times with PBST. […] The plate was then washed three times with PBST. A 1:3500 dilution of a 1 mg/mL stock solution of streptavidin-HRP (Thermo Scientific, #21130) in Casein-PBS was prepared and […] was added to each well for 20 min at 37° C. with gentle shaking. The plate was washed three times with PBST. […] The reaction was stopped by addition of 100 μL of 1M H₃PO₄ to each well. The absorbance at 450 nm (Abs450) was measured using a SpectraMax 340PC plate reader (Molecular Devices).

[6] = target: T4, recombinant human TrkA protein; assay: NGF-blocking ELISA on coated human TrkA, 100 nM btNGF; mAb 20 nM
[7] = target: T4, recombinant human TrkA protein; assay: NGF-blocking ELISA on coated human TrkA, 100 nM btNGF; mAb 2.5 nM
Experimental: as §2

[8] = target: T4, recombinant human TrkA protein; assay: NGF-blocking ELISA on coated human TrkA, 100 nM btNGF; mAb 0.02 nM
Experimental: as §2

[9] = target: T4, recombinant human TrkA protein; assay: NGF-blocking ELISA on coated human TrkA, 100 nM btNGF; mAb 0.08 nM
Experimental: as §2

[10] = target: T4, recombinant human TrkA protein; assay: NGF-blocking ELISA on coated human TrkA, 100 nM btNGF; mAb 0.31 (printed pM, two-fold series gives nM)
Experimental: as §2

Binder | % Max Inhibition, pTrkA [1] [%] | IC50 (nM), pTrkA [1] [nM] | pTrkA counts per second, NGF +0.1 pM mAb [1] [counts per second] | pTrkA counts per second, NGF +1 pM mAb [1] [counts per second] | pTrkA counts per second, NGF +10 pM mAb [1] [counts per second] | pTrkA counts per second, NGF +100 pM mAb [1] [counts per second] | pTrkA counts per second, NGF +1 nM mAb [1] [counts per second] | pTrkA counts per second, NGF +10 nM mAb [1] [counts per second] | pTrkA counts per second, NGF +100 nM mAb [1] [counts per second] | pTrkA counts per second, NGF +1 uM mAb [1] [counts per second] | % Max stimulation, pTrkA [2] [%] | EC50 (nM), pTrkA [2] [nM] | pTrkA counts per second, 0.1 pM mAb, no NGF [2] [counts per second] | pTrkA counts per second, 1 pM mAb, no NGF [2] [counts per second] | pTrkA counts per second, 10 pM mAb, no NGF [2] [counts per second] | pTrkA counts per second, 100 pM mAb, no NGF [2] [counts per second] | pTrkA counts per second, 1 nM mAb, no NGF [2] [counts per second] | pTrkA counts per second, 10 nM mAb, no NGF [2] [counts per second] | pTrkA counts per second, 100 nM mAb, no NGF [2] [counts per second] | pTrkA counts per second, 1 uM mAb, no NGF [2] [counts per second] | other results
mAb A (antibody, human IgG4 S228P, kappa, F234A L235A, V domains shown, Human IgG4PAA/Kappa) VH: EVQLVESGGGLVKPGGSLRLSCAASGFTFSGVSINWVRQAPGKGLEWVSSETTSSGTIYYADSVKGRFTISRDNAKNSLYLQMNSLRAEDTAVYYCARSYYYGMDVWGQGTTVTVSS VL: DIVMTQTPLSSPVTLGQPASISCRSSQSLVHRNGNTYLSWLQQRPGQPPRLLIYKISNRFSGVPDRFSGSGAGTDFTLKISRVEAEDVGVYYCMQARQFPLTFGGGTKVEIKR | 82 | 0.57 | 1.83e+06 | 2.09e+06 | 2.2e+06 | 1.69e+06 | 1.15e+06 | 710000 | 544000 | 580000 | 18 | 0.88 | 171000 | 174000 | 227000 | 203000 | 442000 | 640000 | 572000 | 493000 | Kd [3]: 2.9 nM; koff [3]: 0.00061 s⁻¹; kon [3]: 210000 M⁻¹ s⁻¹; Kd [4]: 4.1 nM; koff [4]: 0.00072 s⁻¹; kon [4]: 180000 M⁻¹ s⁻¹; Absorbance 450 nm [5]: 0.2; Absorbance 450 nm [6]: 0.2; Absorbance 450 nm [7]: 0.21; Absorbance 450 nm [8]: 1.11; Absorbance 450 nm [9]: 1.03; Absorbance 450 nm [10]: 0.73
mAb B (antibody, human IgG4 S228P, kappa, F234A L235A, Human IgG4PAA/Kappa) heavy: not shown light: DIVMTQTPLSSPVTLGQPASISCRSSQSLVHRAGNTYLSWLQQRPGQPPRLLIYKISNRFSGVPDRFSGSGAGTDFTLKISRVEAEDVGVYYCMQARQFPLTFGGGTKVEIKRTVAAPSVFIFPPSDEQLKSGTASVVCLLNNFYPREAKVQWKVDNALQSGNSQESVTEQDSKDSTYSLSSTLTLSKADYEKHKVYACEVTHQGLSSPVTKSFNRGEC | 42 | 0.72 | 4.79e+06 | 4.86e+06 | 4.46e+06 | 5.16e+06 | 3.3e+06 | 2.87e+06 | 2.34e+06 | 2.99e+06 | 38 | 0.98 | 748000 | 844000 | 638000 | 758000 | 1.4e+06 | 2.1e+06 | 2.08e+06 | 1.86e+06 | Kd [3]: 5 nM; koff [3]: 0.0011 s⁻¹; kon [3]: 220000 M⁻¹ s⁻¹; Kd [4]: 6.8 nM; koff [4]: 0.0013 s⁻¹; kon [4]: 190000 M⁻¹ s⁻¹; Absorbance 450 nm [5]: 0.15; Absorbance 450 nm [6]: 0.15; Absorbance 450 nm [7]: 0.16; Absorbance 450 nm [8]: 0.97; Absorbance 450 nm [9]: 0.75; Absorbance 450 nm [10]: 0.55
mAb C (antibody, human IgG4 S228P, kappa, F234A L235A, Human IgG4PAA/Kappa) heavy: not shown light: DIVMTQTPLSSPVTLGQPASISCRSSQSLVHRQGNTYLSWLQQRPGQPPRLLIYKISNRFSGVPDRFSGSGAGTDFTLKISRVEAEDVGVYYCMQARQFPLTFGGGTKVEIKRTVAAPSVFIFPPSDEQLKSGTASVVCLLNNFYPREAKVQWKVDNALQSGNSQESVTEQDSKDSTYSLSSTLTLSKADYEKHKVYACEVTHQGLSSPVTKSFNRGEC | 65 | 1.6 | 3.38e+06 | 3.05e+06 | 3.68e+06 | 2.95e+06 | 2.67e+06 | 1.53e+06 | 1.58e+06 | 1.3e+06 | 50 | 0.21 | 571000 | 613000 | 664000 | 922000 | 1.54e+06 | 1.69e+06 | 1.77e+06 | 1.63e+06 | Kd [3]: 4.7 nM; koff [3]: 0.0011 s⁻¹; kon [3]: 220000 M⁻¹ s⁻¹; Kd [4]: 6.6 nM; koff [4]: 0.0013 s⁻¹; kon [4]: 200000 M⁻¹ s⁻¹; Absorbance 450 nm [5]: 0.16; Absorbance 450 nm [6]: 0.15; Absorbance 450 nm [7]: 0.15; Absorbance 450 nm [8]: 0.97; Absorbance 450 nm [9]: 0.92; Absorbance 450 nm [10]: 0.56
